The values below come from US20210301005A1 (Genentech, published 2021).

Assay [1] has as its target T1, human TGFβ3, mature dimeric form (human, UniProt P10600 301-412).
T1 construct: Peprotech, expressed in E. coli; also called TGFb3
T1 sequence: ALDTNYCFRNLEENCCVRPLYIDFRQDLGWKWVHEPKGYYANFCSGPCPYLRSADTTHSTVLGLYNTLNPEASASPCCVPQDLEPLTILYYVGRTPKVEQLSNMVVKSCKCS
Nature of the assay: BIAcore T200. As for the experimental part:
(§1) For binding affinity determinations of all humanized 2A10 antibodies, Surface Plasmon Resonance (SPR) measurement with a BIAcore™-T200 instrument was used. Briefly, series S CM5 biosensor chip with protein A was first applied to capture each humanized 2A10 variant to achieve approximately 100 response units (RU) on each flow cell, following by injection of 3-fold serial dilutions of human TGFβ1, TGFβ2 or TGFβ3 (0.02 nM to 5 nM) in HBS-EP buffer (0.01M HEPES pH 7.4, 0.15M NaCl, 3 mM EDTA and 0.05% v/v surfactant P20) at 25° C. with a flow rate of 50 μl/min for kinetics measurement. Association rates (ko.) and dissociation rates (koff) were calculated using a simple one-to-one Langmuir binding model (BIAcore T200 evaluation software version 2.0) to determine the equilibrium dissociation constant (KD), which was calculated as the ratio koff/kₒₙ.
(§2) Binding affinity determinations of all humanized 4A11 antibodies were performed using SPR measurement with a BIAcore™-T200 instrument, as described above in Example 6 ([…]).
In general terms: SPR reads the build-up and loss of mass on a sensor chip optically.

Assay [2] has as its target T2, human TGFβ2, mature receptor-binding domain (human, UniProt P09858 303-414 (pig entry), The mature TGFβ2 is a disulfide-linked homodimer of this 112-residue chain. The 4A11 epitope spans both monomers (p-1207).).
T2 construct: Peprotech; also called TGFb2
T2 sequence: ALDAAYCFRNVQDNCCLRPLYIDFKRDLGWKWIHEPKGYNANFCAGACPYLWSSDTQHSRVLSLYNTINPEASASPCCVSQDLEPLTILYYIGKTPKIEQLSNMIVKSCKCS
Nature of the assay: BIAcore T200. As for the experimental part: as §1, §2

Assay [3] deals with T1, human TGFβ3, mature dimeric form. Nature of the assay: cell-based or functional assay.
For assay [4], the target named is T2, human TGFβ2, mature receptor-binding …. Nature of the assay: cell-based or functional assay.
Assay [5] concerns the target human TGFβ1, mature receptor-binding domain (human, UniProt P01137 279-390). Nature of the assay: cell-based or functional assay.

The Kd is the concentration at which binding is half-saturated.

Chain of human TGFβ1, mature receptor-binding domain (P01137 279-390 limits assumed): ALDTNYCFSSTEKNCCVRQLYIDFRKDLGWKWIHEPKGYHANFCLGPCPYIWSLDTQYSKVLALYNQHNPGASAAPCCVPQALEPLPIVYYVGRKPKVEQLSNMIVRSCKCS

B1: h4A11.v1 (antibody, human IgG1, kappa, N297G, V domains shown)
VH: EQQLVESGGGLVQPGGSLRLSCAVSGFSLSSYTVNWVRQAPGKGLEWIGYISYGGSAYYASWANGRFTISKDSAKNSVYLQMNSLRAEDTAVYFCARHMQVGGAPTGSMAAFDPWGPGTLVTVSS
VL: DAVLTQSPDSLAVSLGERATINCQSSQSVYNNNYLSWFQQKPGQPPKLLIYGASTLTSGVPDRFSGSGSGTDFTLTISSLQAEDVAVYYCAGGYSGSSDKYAFGGGTKVEIKR
As to B1, the Kd in assay [1] came out at 0.0144 nM; in assay [2] it was 0.0046 nM. Moreover, the “HEKBlue TGFβ blocking IC50” value in assay [3], in assay [4] and in assay [5] was over 200 nM in each case.

B2: h4A11.v2 (antibody, human IgG1, kappa, N297G, V domains shown)
VH: EQQLVESGGGLVQPGGSLRLSCAVSGFSLSSYTVNWVRQAPGKGLEWIGYISYGGSAYYASWANGRFTISKDSAKNSVYLQMNSLRAEDTAVYFCARHMQVGGAPTGSMAAFDPWGPGTLVTVSS
VL: DAQLTQSPSSLSASVGDRVTITCQSSQSVYNNNYLSWFQQKPGKPPKLLIYGASTLTSGVPSRFSGSGSGTDFTLTISSLQPEDFATYYCAGGYSGSSDKYAFGGGTKVEIKR
As for B2, the values for the Kd in assay [1] and in assay [2] were 0.0133 nM and 0.0014 nM, respectively. The “HEKBlue TGFβ blocking IC50” value in assay [3], in assay [4] and in assay [5] was over 200 nM each time.

B3: h4A11.v3 (antibody, human IgG1, kappa, N297G, V domains shown)
VH: EQQLQESGPGLVKPSETLSLTCTVTGFSLSSYTVNWVRQPAGKGLEWIGYISYGGSAYYASWANGRFTISKDSSKNQVSLKLSSVTAADTAVYFCARHMQVGGAPTGSMAAFDPWGPGTLVTVSS
VL: DAVLTQSPDSLAVSLGERATINCQSSQSVYNNNYLSWFQQKPGQPPKLLIYGASTLTSGVPDRFSGSGSGTDFTLTISSLQAEDVAVYYCAGGYSGSSDKYAFGGGTKVEIKR
Take B3: the Kd in assay [1] is 0.0121 nM; in assay [2], 0.0096 nM. The entries for the “HEKBlue TGFβ blocking IC50” value in assay [3], in assay [4] and in assay [5] were 0.23 nM, 3.9 nM and over 200 nM, respectively.

B4: h4A11.v6 (antibody, human IgG1, kappa, N297G, V domains shown)
VH: EQQLVESGGGLVQPGGSLRLSCAVSGFSLSSYTVNWVRQAPGKGLEWIGYISYGGSAYYASWANGRFTISKDSAKNSVYLQMNSLRAEDTAVYFCARHMQVGGAPTGSMAAFDPWGPGTLVTVSS
VL: DAVLTQTPLSSPVTLGQPASISCQSSQSVYNNNYLSWFQQRPGQPPRLLIYGASTLTSGVPDRFSGSGAGTDFTLKISRVEAEDVGVYYCAGGYSGSSDKYAFGGGTKVEIKR
In the case of B4, the Kd in assay [1] amounted to 0.0125 nM; in assay [2], 0.0084 nM. For the same molecule, the figures for the “HEKBlue TGFβ blocking IC50” value in assay [3], in assay [4] and in assay [5] were 6.7 nM, over 200 nM and over 200 nM, respectively.

B5: h4A11.v5 (antibody, human IgG1, kappa, N297G, V domains shown)
VH: EQQLVESGGGLVQPGGSLRLSCAVSGFSLSSYTVNWVRQAPGKGLEWIGYISYGGSAYYASWANGRFTISKDSAKNSVYLQMNSLRAEDTAVYFCARHMQVGGAPTGSMAAFDPWGPGTLVTVSS
VL: EAVLTQSPGTLSLSPGERATLSCQSSQSVYNNNYLSWFQQKPGQPPRLLIYGASTLTSGVPDRFSGSGSGTDFTLTISRLEPEDFAVYYCAGGYSGSSDKYAFGGGTKVEIKR
On to B5, for which the Kd in assay [1] came out at 0.0139 nM; in assay [2] it was 0.0121 nM. For the same molecule, the “HEKBlue TGFβ blocking IC50” value in assay [3] was 1.4 nM; in assay [4], over 200 nM; in assay [5], over 200 nM.

B6: h4A11.v4 (antibody, human IgG1, kappa, N297G, V domains shown)
VH: EQQLQESGPGLVKPSETLSLTCTVTGFSLSSYTVNWVRQPAGKGLEWIGYISYGGSAYYASWANGRFTISKDSSKNQVSLKLSSVTAADTAVYFCARHMQVGGAPTGSMAAFDPWGPGTLVTVSS
VL: DAQLTQSPSSLSASVGDRVTITCQSSQSVYNNNYLSWFQQKPGKPPKLLIYGASTLTSGVPSRFSGSGSGTDFTLTISSLQPEDFATYYCAGGYSGSSDKYAFGGGTKVEIKR
Regarding B6, the dissociation constant (Kd) in assay [1] was 0.0101 nM; in assay [2], 0.01 nM. Besides, the “HEKBlue TGFβ blocking IC50” value in assay [3] was 0.08 nM; in assay [4], 1.9 nM; in assay [5] it was over 200 nM.
